How the values were obtained:
[1] = target: mouse SNX5 PX domain (residues 20–180) (mouse) (UniProt Q9D8U8); assay: SPR; Biacore T100; PX5 immobilised on a CM5 chip, GST-IncE 109-132 WT or mutants flowed over; 25 °C; 20 mM Na HEPES pH 7.5, 200 mM NaCl, 0.005% Triton-X100; 1:1 steady state analysis
[2] = target: mouse SNX5 PX domain (residues 20–180) (mouse) (UniProt Q9D8U8); assay: SPR; Biacore T100; PX5 immobilised on a CM5 chip, IncE 109-132 peptide flowed over (33 nM-2.7 uM); 25 °C; 20 mM Na HEPES pH 7.5, 200 mM NaCl, 0.005% Triton-X100; 1:1 fitting model

Chain of UniProt Q9D8U8 (Q9D8U8 20-180): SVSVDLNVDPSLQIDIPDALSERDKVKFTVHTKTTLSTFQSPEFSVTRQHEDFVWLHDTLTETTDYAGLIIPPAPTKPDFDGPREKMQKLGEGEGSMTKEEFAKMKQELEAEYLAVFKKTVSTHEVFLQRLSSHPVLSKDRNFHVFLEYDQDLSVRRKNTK

Substance	Kd [1]	Kd [2]
GST-IncE^109–132 WT (domain or fragment)	390 nM	
GST-IncE^109–132 K118A (domain or fragment)	790 nM	
IncE^109–132 peptide		540 nM
GST-IncE^109–132 V127A (domain or fragment)	980 nM	

Reference: article PMC5661634
